# Patent US20220119784
# Legend:
# [1] = system: PDCD-1 megaTAL parent (Artificial Sequence); test: cell_activity; conditions: primary human T cells, mRNA electroporation, TIDE
# [2] = system: PDCD-1 megaTAL thermostable variant (Artificial Sequence); test: cell_activity; conditions: nearly 80%; primary human T cells, mRNA electroporation, TIDE
substance,measurement,setting,value
PDCD-1 target site,activity,[1],< 20 % editing
same,activity,[2],80 % editing
